{"source": "paper PMC11984302", "settings_in_all_cases": "SICS: thrombin in 1 M KCl (or 150 mM KCl), pH 7.5, 30 min incubation, 300 mV; gel: 16% Tris-Glycine; temperature not stated", "key": {"[1]": {"target": "T1, thrombin (human plasma, Sigma-Aldrich) (Homo sapiens) (UniProt P00734+P00734)", "test": "single-molecule SICS nanopore"}, "[2]": {"target": "T1, thrombin (human plasma, Sigma-Aldrich) (Homo sapiens)", "test": "free translocation nanopore"}, "[3]": {"target": "T1, thrombin (human plasma, Sigma-Aldrich) (Homo sapiens)", "test": "single-molecule SICS nanopore", "remark": "listed apart in the source"}}, "data": [{"sequence": "TCAGCTTGCGGAGATGCGATGGTTGGTGTGGTTGGATCGAGAAAAAGGTACGCCC / GGGCGTACCTTTTTCTCGATATCGCATCTCCGCAAGCTGA [extended TBA 1 in single-gap DNA carrier]", "values": [{"measurement": "binding signal (% carriers with thrombin bound)", "setting": "[1]", "value": "> 30"}, {"measurement": "binding signal (% events with thrombin bound)", "setting": "[2]", "value": 14.1}, {"measurement": "binding signal (% carriers with thrombin bound)", "setting": "[3]", "value": 52}]}]}
